Results as given in the supplement of paper PMC12764529.
± gives the half width of the 95% confidence interval.

Key:
[1] = folding stability dG unfold from chymotrypsin proteolysis; higher = more stable
Procedure, shortened: (§1)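 Unfolding free energy was derived, per protease or combined, by relating Bayesian-fitted K50 values from sequencing counts to a sequence-predicted unfolded-state K50 and a shared folded-state K50. The underlying digests exposed cysteine-free mini-proteins under 80 residues, in a PA-tagged cDNA display construct, to trypsin and chymotrypsin at 11 threefold-diluted concentrations and to a no-protease condition. A filter kept only designs with AlphaFold2 dimer inter-PAE above 15.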

[2] = folding stability dG unfold (combined trypsin and chymotrypsin); higher = more stable
Procedure, shortened: as §1

[3] = folding stability dG unfold from trypsin proteolysis; higher = more stable
Procedure, shortened: as §1

Sequence | folding stability dG unfold [1] [kcal/mol] | folding stability dG unfold [2] [kcal/mol] | folding stability dG unfold [3] [kcal/mol]
SAGGSAGGSAGDLLKEAVEEAKDSGHPNVPIRFNFPGGTIRITVKVDPKNGKVEIKVEPVSAGGSAGGSAGG [r17_475_TrROS] | 0.445 ± 0.1 | 0.645 ± 0.29 | 0.674 ± 0.12
SAGGSAGGSAGDNKPKPIKIRIESYYPNGKKQEHDFEVPDPEDLDELAKTNPGYKIDEIESAGGSAGGSAGG [r11_802_TrROS] | 0.821 ± 0.056 | 0.478 ± 0.12 | -0.258 ± 0.057
SAGGSAGGSAGDNWVIRIWWPNGKEQVFPGNLEDLLERIPPDNKDMKVEIFDPDDGKEIWSAGGSAGGSAGG [r11_353_TrROS] | 1.01 ± 0.17 | 1.1 ± 0.17 | 1.09 ± 0.043
SAGGSAGGSAGDPGERPYVEVTVRIPITPGLEIPWWIPPENMPPEDAEKFAQDIAKEFLDSAGGSAGGSAGG [r11_409_TrROS] | -0.482 ± 0.17 | 0.426 ± 0.11 | 0.889 ± 0.047
SAGGSAGGSAGDPGQELMFMWIWPWPNPDGQPWVRIFMWSVRVDDGKIKEIEPTTMWIPLSAGGSAGGSAGG [r11_35_TrROS] | 3.774 ± 0.032 | 3.55 ± 0.26 | 3.08 ± 0.17
SAGGSAGGSAGDSPSTPVLVTETFTFPVTVTAPNEGGYSTTTSTVTVTVTLEVYVSPSFPSAGGSAGGSAGG [r17_186_JUSTAS] | 2.92 ± 0.04 | 2.62 ± 0.061 | 2.2 ± 0.053
SAGGSAGGSAGDTLILVRNEDGRLYLIRVRAYRVPGEDGSLVFEVEIVEFPSLEEALAALSAGGSAGGSAGG [r11_967_TrROS_Hall] | 4.825 ± 0.039 | 4.66 ± 0.051 | 4.05 ± 0.065
SAGGSAGGSAGEEVILRIKVKLKNGEERTIEINMTLDELLAELPENVTEIKIEAIPKEDLSAGGSAGGSAGG [r11_596_TrROS_Hall] | 1.54 ± 0.017 | 1.46 ± 0.079 | 1.29 ± 0.052
SAGGSAGGSAGEKEITISILVKGEDGRLYAIKMKAKITFDEKTNELKIEIEEISITPLPPSAGGSAGGSAGG [r17_129_TrROS_Hall] | 4.29 ± 0.16 | 4.32 ± 0.23 | 3.98 ± 0.21
SAGGSAGGSAGEKPVYYARVTEVKYNPENKELEIKLENGETITLSLEELKSLKPGDIIRISAGGSAGGSAGG [r11_124_TrROS_Hall] | 2 ± 0.023 | 1.97 ± 0.065 | 1.88 ± 0.057
SAGGSAGGSAGEPKIIPIKLPENAKVEEFENPDGYPIKIFENPDNGEIWIVWPDGKIWPISAGGSAGGSAGG [r11_601_TrROS] | 0.719 ± 0.056 | 0.93 ± 0.067 | 1.19 ± 0.051
SAGGSAGGSAGEPVEIEIKIKVEVNGKTYEITAKLEVYKNEDGSYEVKLYAPPEAITEVESAGGSAGGSAGG [r11_816_TrROS_Hall] | 2.99 ± 0.09 | 2.7 ± 0.24 | 2.47 ± 0.21
SAGGSAGGSAGETITVKIVRFKPGSPEVRKLAEKLGLSEEEVEPVEVFTFKSEEELKAALSAGGSAGGSAGG [r11_83_TrROS_Hall] | 0.471 ± 0.24 | 0.374 ± 0.16 | -0.172 ± 0.12
SAGGSAGGSAGEVVVEEKEDPSGVLTRTETYPDSVVVTEYKIAPDGKTTEPKPTILPKSESAGGSAGGSAGG [r17_72_JUSTAS] | -0.583 ± 0.22 | -0.337 ± 0.15 | -0.494 ± 0.1
SAGGSAGGSAGFEAFVEEIKKDGDYKVEAFVFDNESGIKTLVIVLESPEEDKYEIRTFNISAGGSAGGSAGG [r11_753_TrMRF] | 0.796 ± 0.24 | 0.829 ± 0.14 | 0.769 ± 0.038
SAGGSAGGSAGFFIRIEPPNGEKVHFPMPPNQLPELAEEFPGLKIDDIDEGNGWIWVEVPSAGGSAGGSAGG [r17_22_TrROS] | -0.453 ± 0.47 | -0.264 ± 0.35 | -0.0744 ± 0.23
SAGGSAGGSAGFNFDIELERDPNGRARVMIKIPLPNGKHYIVIYEFDPDSGKMETKIFPVSAGGSAGGSAGG [r11_107_TrROS] | 3.82 ± 0.12 | 3.43 ± 0.19 | 3.07 ± 0.086
SAGGSAGGSAGGAPNAPKPVLVFAEVTVTSVEYDPETGELRIEVELPDGGEKLTFRLPLSAGGSAGGSAGGS [r10_427_TrMRF] | 2.44 ± 0.031 | 2.23 ± 0.054 | 1.93 ± 0.031
SAGGSAGGSAGGAPPGAKFTVKVPSNDNVIPGSVTLGPDGGTVFHFDGPVPEGDYEIVLESAGGSAGGSAGG [r7_627_JUSTAS] | -0.362 ± 0.17 | -0.643 ± 0.15 | -1.63 ± 0.33
SAGGSAGGSAGGAPTIRVELRHPNGERIELEFPADADVIFVPEDYEITRIEIVPADDPASAGGSAGGSAGGS [r10_571_TrMRF] | 1.837 ± 0.018 | 1.69 ± 0.052 | 1.51 ± 0.062
SAGGSAGGSAGGAVFKTPDGTTLTLLPDGTVVVTEYSPDGVPLRVETRTMTAADIAAAASAGGSAGGSAGGS [r10_874_JUSTAS] | 1.5 ± 0.088 | 1.01 ± 0.085 | -0.022 ± 0.12

Sequence | folding stability dG unfold [1] [kcal/mol] | folding stability dG unfold [2] [kcal/mol] | folding stability dG unfold [3] [kcal/mol]
SAGGSAGGSAGGAVTTNKDVPLPGPFSIGTVTVSPPDPATPVVTFNSYEGNGPVTLTVPVSAGGSAGGSAGG [r11_1013_JUSTAS] | 0.321 ± 0.11 | 0.921 ± 0.04 | 1.24 ± 0.015
SAGGSAGGSAGGDENDYYMVEIPIWRRNENGGWEPIFPIPIMVPKGAPKDVAKDILNNLSAGGSAGGSAGGS [r10_470_TrROS] | 0.324 ± 0.12 | 0.382 ± 0.085 | 0.361 ± 0.1
SAGGSAGGSAGGDGEDGKPKPEPKIKIKIEVESVRNPNGFLIVTYRIPALGIWITIIINSAGGSAGGSAGGS [r10_160_TrROS] | 4.91 ± 0.24 | 4.6 ± 0.39 | 3.03 ± 0.15
SAGGSAGGSAGGDGIVVPVDEAVGLIKELGLKVVGVFEHPGGPPAVLFELPDGRLLLAESAGGSAGGSAGGS [r10_210_TrMRF] | 0.792 ± 0.042 | 0.603 ± 0.047 | 0.381 ± 0.045
SAGGSAGGSAGGDITIDTEQMPNGWHTVKVRLPNGKPIAPVPMPPGMTPEEAVKRALDRLSAGGSAGGSAGG [r7_444_TrROS] | -0.407 ± 0.25 | 0.0336 ± 0.12 | 0.0871 ± 0.065
SAGGSAGGSAGGDKNDLSPGATISTYTNPGSFTVTLPTGETVTLPKTVTTTVTFFDSTNSAGGSAGGSAGGS [r10_643_JUSTAS] | 0.104 ± 0.14 | 0.227 ± 0.08 | 0.254 ± 0.072
SAGGSAGGSAGGDLLRDLPGLELRIETVTVTERYFDEDGELVEEREETVTRIELRRPGEESAGGSAGGSAGG [r7_614_TrROS_Hall] | 2.15 ± 0.1 | 1.75 ± 0.2 | 0.383 ± 0.2
SAGGSAGGSAGGDNLMIMIEIEPVKTETRMDPDGKMETRTEYRIKIEIIPPPNPDDPENNSAGGSAGGSAGG [r7_523_TrROS] | 2.63 ± 0.049 | 2.28 ± 0.17 | 1.55 ± 0.11
SAGGSAGGSAGGDNRLPIPVKTPVVVVPADEAREEIRATLPPDAYRVEEERGDYVTISLGSAGGSAGGSAGG [r7_670_JUSTAS] | 1.05 ± 0.022 | 0.847 ± 0.049 | 0.481 ± 0.044
SAGGSAGGSAGGDNWKIGIDIIPIRFTFEMTMKDGGKPRPMRMEFEVTIIVIKITPPGDSAGGSAGGSAGGS [r10_118_TrROS] | 5.1 ± 0.079 | 4.89 ± 0.11 | 3.5 ± 0.1
SAGGSAGGSAGGDPDERIPIKIEMWHPNKPYEHEFPVGMDLSDIADPFASDGFMVRIEISAGGSAGGSAGGS [r10_540_TrROS] | 1.26 ± 0.07 | 1.05 ± 0.14 | 0.795 ± 0.058
SAGGSAGGSAGGDPNWVTVTIMIKVPPGDKPIEIEIPNGIKVEYYPFPDDGYLIFKITVRSAGGSAGGSAGG [r7_796_TrROS] | 3.11 ± 0.16 | 3.02 ± 0.23 | 2.78 ± 0.16
SAGGSAGGSAGGDTVEIELRAFFPETGLIITPTITIDKNGKIISINPRIEPLPPPLEGILSAGGSAGGSAGG [r7_135_TrMRF] | -0.253 ± 0.1 | 0.0659 ± 0.23 | 0.341 ± 0.069
SAGGSAGGSAGGDWITFTNPGGYKVTVEVDENGWMRVEVYPNGKPQEVPMPLEELKKNAPSAGGSAGGSAGG [r7_178_TrROS] | 0.868 ± 0.17 | 0.423 ± 0.19 | -0.451 ± 0.18
SAGGSAGGSAGGEAKIKLEVEETPGGLVIRAEVEVDGKLYEVELRIKGDEIVEVKIKPLDSAGGSAGGSAGG [r7_187_TrROS_Hall] | 2.62 ± 0.2 | 2.5 ± 0.17 | 2.13 ± 0.097
SAGGSAGGSAGGEDPNLKSKTITKKVEKGKLDSSKNITDSSGNTSIITVENNTITITIVSSAGGSAGGSAGG [r7_97_JUSTAS] | 1.66 ± 0.049 | 1.03 ± 0.2 | -0.215 ± 0.31
SAGGSAGGSAGGEEKTEEEKRKEERLKPAPPLVLELDVEVDGKLYRFRLVNGKLEIEELPSAGGSAGGSAGG [r7_156_TrROS_Hall] | 2.98 ± 0.038 | 2.56 ± 0.11 | 1.71 ± 0.047
SAGGSAGGSAGGEIKPGETITNLKVKIRNKKTGKTITVTLKPGETAEDLAKKLGVEIEPSAGGSAGGSAGGS [r10_202_TrROS_Hall] | 0.881 ± 0.097 | 0.87 ± 0.1 | 0.622 ± 0.12
SAGGSAGGSAGGEIVIPVDGKLVVIKLKNGKKITVPVEDLKELLKKLGIKNAKIEVVPAKSAGGSAGGSAGG [r7_235_TrROS_Hall] | 2.82 ± 0.049 | 2.56 ± 0.17 | 1.8 ± 0.088
SAGGSAGGSAGGEKVVVPPPEVELRLERREDGYVRLYARNKDGEWEEVAVFKVSPEELELSAGGSAGGSAGG [r7_659_TrROS_Hall] | 3.77 ± 0.13 | 3.37 ± 0.32 | 3.09 ± 0.19
SAGGSAGGSAGGELELEVEVDGVLVRARVELDPETDELKIELEVRPLPPPEVVFLPEDRSAGGSAGGSAGGS [r10_582_TrROS_Hall] | 0.504 ± 0.029 | 0.489 ± 0.1 | 0.576 ± 0.072
